Among the data in patent US20200199647A1, “ASSAY FOR SCREENING MODULATORS OF HOLOPHOSPHATASE ACTIVITY” (UNITED KINGDOM RESEARCH AND INNOVATION, priority 2017, published 2020) are Kd and fold higher affinity than the isolated PP1c^D95A values, retold here.

The target of assay [1] is P-eIF2α (human eIF2α amino acids 1-185 solubility mutant, C-terminal His6-tag, phosphorylated on Ser51) (human) (UniProt P05198). The assay is described as follows: thermophoresis (MST), labelled P-eIF2α, unlabelled PP1c^D95A titrated.
The target is the same in assay [2]. The assay is described as follows: thermophoresis.
Target sequence in this assay (P05198 other isoform, or with tags, fused parts or gaps mutant): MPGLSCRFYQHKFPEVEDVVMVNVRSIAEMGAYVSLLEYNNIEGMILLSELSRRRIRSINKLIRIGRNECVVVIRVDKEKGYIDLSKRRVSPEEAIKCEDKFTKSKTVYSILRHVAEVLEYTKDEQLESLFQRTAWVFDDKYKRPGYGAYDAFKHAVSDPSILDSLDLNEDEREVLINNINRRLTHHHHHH
Assay [3] addresses PP1c (human PP1cα amino acids 7-330, N-terminal Thio6/His6 tag) (human) (UniProt P62136). The assay is described as follows: thermophoresis (MST), labelled PP1c, unlabelled R15A titrated.
The target of assay [4] is P-eIF2α (human eIF2α amino acids 1-185 solubility mutant, C-terminal His6-tag, phosphorylated on Ser51) (human) (UniProt P05198). In words: thermophoresis (MST), labelled P-eIF2α with 10 µM R15A, unlabelled PP1c^D95A titrated.
The target in assay [5] is PP1c (human PP1cα amino acids 7-330, N-terminal Thio6/His6 tag) (human) (UniProt P62136). The assay is described as follows: thermophoresis.
For assay [6], the target named is P-eIF2α (human eIF2α amino acids 1-185 solubility mutant, C-terminal His6-tag, phosphorylated on Ser51) (human) (UniProt P05198). In words: thermophoresis (MST), labelled P-eIF2α with 10 µM R15B, unlabelled PP1c^D95A titrated.

Chain of PP1c (human PP1cα amino acids 7-330, N-terminal Thio6/His6 tag) (human) (P62136 other isoform, or with tags, fused parts or gaps): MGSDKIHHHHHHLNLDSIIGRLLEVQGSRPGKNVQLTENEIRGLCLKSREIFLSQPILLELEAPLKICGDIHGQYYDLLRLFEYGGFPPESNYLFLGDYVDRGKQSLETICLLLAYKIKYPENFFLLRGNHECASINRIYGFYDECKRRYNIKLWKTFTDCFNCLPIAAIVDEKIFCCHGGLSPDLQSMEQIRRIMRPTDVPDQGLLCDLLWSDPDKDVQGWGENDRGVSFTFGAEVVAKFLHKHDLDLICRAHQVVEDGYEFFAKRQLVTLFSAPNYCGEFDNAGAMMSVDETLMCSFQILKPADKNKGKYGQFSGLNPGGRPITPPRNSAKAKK

In turn, “PP1c^D95A (human PP1cα amino acids 7-330, D95A, N-terminal Thio6/His6 tag) (from UniProt P62136 7-330) (enzyme)” had a Kd in assay [1] of 650 nM.

Take “R15A (human PPP1R15A amino acids 325-636, N-terminal MBP-tag, C-terminal His6-tag) (from UniProt O75807 325-636)”: the Kd came out at 340 nM in assay [2] and 60 nM in assay [3].

As for “R15A-PP1c^D95A holophosphatase complex (from UniProt O75807 325-636; P62136 7-330)”, the fold higher affinity than the isolated PP1c^D95A in assay [4] is 5.4 times.

“R15A^C (human PPP1R15A amino acids 513-636, N-terminal MBP-tag, C-terminal His6-tag) (from UniProt O75807 513-636)”: the Kd in assay [5] was 190 nM.

Substance “R15A^N (human PPP1R15A amino acids 325-512, N-terminal MBP-tag, C-terminal His6-tag) (from UniProt O75807 325-512)” yielded a Kd in assay [2] of 440 nM. This counts as sub-micromolar.

For “R15B (human PPP1R15B amino acids 340-698, N-terminal MBP-tag, C-terminal His6-tag) (from UniProt Q5SWA1 340-698)”, the Kd in assay [2] worked out at 550 nM.

Turning to “R15B-PP1c^D95A holophosphatase complex (from UniProt P0AEX9 27-392; Q5SWA1 340-698; P62136 7-330)”, in assay [6], the fold higher affinity than the isolated PP1c^D95A stood at 3 times.

In turn, “R15B^N (human PPP1R15B amino acids 340-635, N-terminal MBP-tag, C-terminal His6-tag) (from UniProt Q5SWA1 340-635)” yielded a Kd in assay [2] of 530 nM.

What is called Kd is a measure of binding affinity in units of concentration.
